Assay [1] concerns the target DH475 Fab, heavy chain D77A (human). Kind of assay: BLI; BLItz; Fab (0.2 mg/mL) immobilised on Anti-Human Fab-CH1 2nd Generation (FAB2G) biosensors, Env constructs titrated; 2.5 mM Tris pH 7.5, 350 mM NaCl; global fit.
Assay [2] has as its target DH475 Fab, heavy chain N30A (human). Described as above.
Assay [3] deals with DH475 Fab, heavy chain N31A (human). The description is as above.
The target in assay [4] is DH475 Fab, heavy chain W104A (human). Described as above.
Assay [5] has as its target CH848 TF DS SOSIP Env trimer (HIV-1 (donor CH848, transmitted/founder)). Kind of assay: ITC; 157 uM DH272.2 injected into a cell with 7.59 uM CH848 TF DS SOSIP Env; single site model. On the technique in general: ITC needs no label: the signal is the heat of the interaction.

Results on 2 molecules are retold here after PMC9548623.

The Kd is the concentration at which binding is half-saturated. High values mean weaker binding, low ones tighter binding. The term stoichiometry N denotes the number of molecules, sites or subunits per partner or assembly.

DH475 Fab, heavy chain D77A (human), sequence (heavy, as listed by the source, chain 1 of 2): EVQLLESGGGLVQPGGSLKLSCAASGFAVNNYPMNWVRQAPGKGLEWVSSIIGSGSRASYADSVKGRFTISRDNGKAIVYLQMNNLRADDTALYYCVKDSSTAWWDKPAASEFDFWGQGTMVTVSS
DH475 Fab, heavy chain D77A (human), sequence (light, as listed by the source, chain 2 of 2): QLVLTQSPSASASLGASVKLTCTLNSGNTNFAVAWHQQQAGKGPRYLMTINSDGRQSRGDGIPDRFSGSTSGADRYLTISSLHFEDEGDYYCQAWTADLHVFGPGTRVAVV
DH475 Fab, heavy chain N30A (human), sequence (heavy, as listed by the source, chain 1 of 2): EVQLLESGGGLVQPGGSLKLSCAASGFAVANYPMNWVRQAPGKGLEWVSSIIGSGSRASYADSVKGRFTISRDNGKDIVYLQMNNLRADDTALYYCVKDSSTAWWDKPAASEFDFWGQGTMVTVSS
DH475 Fab, heavy chain N30A (human), sequence (light, as listed by the source, chain 2 of 2): as the sequence (light, as listed by the source, chain 2 of 2) above
DH475 Fab, heavy chain W104A (human), sequence (heavy, as listed by the source, chain 1 of 2): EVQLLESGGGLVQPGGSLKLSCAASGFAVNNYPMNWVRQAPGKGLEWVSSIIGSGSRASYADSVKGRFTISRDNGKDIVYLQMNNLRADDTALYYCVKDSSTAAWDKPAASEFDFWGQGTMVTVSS
DH475 Fab, heavy chain W104A (human), sequence (light, as listed by the source, chain 2 of 2): as the sequence (light, as listed by the source, chain 2 of 2) above
DH475 Fab, heavy chain N31A (human), sequence (heavy, as listed by the source, chain 1 of 2): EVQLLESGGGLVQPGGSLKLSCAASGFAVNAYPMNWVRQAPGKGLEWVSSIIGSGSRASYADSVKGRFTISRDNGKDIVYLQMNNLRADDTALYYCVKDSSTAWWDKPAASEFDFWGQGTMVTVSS
DH475 Fab, heavy chain N31A (human), sequence (light, as listed by the source, chain 2 of 2): as the sequence (light, as listed by the source, chain 2 of 2) above

For the molecule “CH848 transmitted/founder (TF) gp120 core (domain or fragment)”, the Kd in assay [1], in assay [2], in assay [3] and in assay [4] was greater than 50 µM in each case.

B1: DH272.2 Fab (Fab, V domains shown)
VH: QVQLVQSGAEVKKPGASVKVSCQASGYRVSDHFVNWMRQAPGQRLEWIGWFNPDSRDTHYADKFKGRVTSTKIGNTVYMQLSSLRSDDTAVYYCARERYDFHSGLEGSFDFWGQGTLVTV
VL: DIVMTQSPLSLPVTLGQPASISCRSSQSLVHNYGNTYLNWFQQRPGQSPRRLIYKVSGRDSGVPDRFSGGGSGTDFTLKISSVEAEDVGVYYCMQGTHWPRTFGQGTKLEIN
For B1, in assay [5], the stoichiometry N is 3.
